Ends that are not written are not given here.
Biological target: mammalian voltage-gated Kv1.2 channel (mammalian)

VSCTGSKDCYAPCRQQTGCPNAKCINKSCKCYGC (not fully specified; ends and bridges not checked) [[Q15]-MTX]
potency on the channel: 0.047 nM
